Source: article PMC9352680, “A comprehensive thermodynamic model for RNA binding by the Saccharomyces cerevisiae Pumilio protein PUF4”

T1: PUF4 RNA-binding domain (Saccharomyces cerevisiae, UniProt P25339 537-888)
T1 sequence: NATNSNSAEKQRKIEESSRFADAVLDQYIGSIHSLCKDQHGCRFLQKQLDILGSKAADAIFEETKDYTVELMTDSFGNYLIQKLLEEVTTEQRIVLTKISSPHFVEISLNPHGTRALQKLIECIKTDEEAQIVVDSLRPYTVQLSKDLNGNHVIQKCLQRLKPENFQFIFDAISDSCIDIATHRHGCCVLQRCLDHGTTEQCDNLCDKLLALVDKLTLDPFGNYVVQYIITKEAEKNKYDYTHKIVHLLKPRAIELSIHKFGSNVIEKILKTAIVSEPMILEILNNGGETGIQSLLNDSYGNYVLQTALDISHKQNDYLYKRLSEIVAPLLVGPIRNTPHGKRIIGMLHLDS


Target: T1, PUF4 RNA-binding domain
Assay: Mg; RNA-MaP; 20 mM Na-HEPES pH 7.4, 30 mM KOAc, 0.75 mM MgCl2, 0.1% Tween-20, 5% glycerol, 0.1 mg/mL BSA, 2 mM DTT; 25 C; 0.0125-409.6 nM protein
Details: tags: N-His6-TEV cleaved; C-SNAP kept, Cy3B-labelled; label: tethered on chip by stalled RNA polymerase

| Binder | Kd [nM] |
| --- | --- |
| UCUCUUUGUACUGUCAUCUCUU (ssRNA) [Ic_S1_P5E.1_K5.1_C5.1_H5.1_A5.1_[T5C]_[A7G]_F5.1_[T9C]_T5.1] | 116 |
| UCUCUUUGUACUCAGCUCUCUU (ssRNA) [Ic_S1_P5E.1_K5.1_C5.1_H5.1_A5.1_[T5C]_[A7C]_F5.1_[T8A]_[T9G]_[A10C]_T5.1] | 945 |
| UCUCUUUGUAUAACUUCUCUU (ssRNA) [Ic_S1_P4E.1_K4.1_C4.1_H4.1_A4.1_[T7A]_F4.1_[T8C]_[A9T]_T4.1] | 44.2 |
| UCUCUUUGUACCUUUUUCUCUU (ssRNA) [Ic_S1_P5E.1_K5.1_C5.1_H5.1_A5.1_[T5C]_[T6C]_[A7T]_F5.1_[A10T]_T5.1] | 26.7 |
| UCUCUUUGUACGAUCAUCUCUU (ssRNA) [Ic_S1_P5E.1_K5.1_C5.1_H5.1_A5.1_[T5C]_[T6G]_F5.1_[T9C]_T5.1] | 88.9 |
| UCUCUUUGUAUAACCUCUCUU (ssRNA) [Ic_S1_P4E.1_K4.1_C4.1_H4.1_A4.1_[T7A]_F4.1_[T8C]_[A9C]_T4.1] | 62.8 |
| UCUCUUUGUAUACAUUCUCUU (ssRNA) [Ic_S1_P4E.1_K4.1_C4.1_H4.1_A4.1_[T7C]_F4.1_[T8A]_[A9T]_T4.1] | 48.5 |
| UCUCUUUGUAAUCACGUCUCUU (ssRNA) [Ic_S1_P5E.1_K5.1_C5.1_H5.1_A5.1_[T5A]_[A7C]_F5.1_[T8A]_[T9C]_[A10G]_T5.1] | 1250 |
| UCUCUUUGUAUAUCGCUCUCUU (ssRNA) [Ic_S1_P5E.1_K5.1_C5.1_H5.1_A5.1_[T6A]_[A7T]_F5.1_[T8C]_[T9G]_[A10C]_T5.1] | 27.4 |
| UCUCUUUGUACCCAACUCUCUU (ssRNA) [Ic_S1_P5E.1_K5.1_C5.1_H5.1_A5.1_[T5C]_[T6C]_[A7C]_F5.1_[T8A]_[T9A]_[A10C]_T5.1] | 836 |
| UCUCUUUGUAAAUCUCUCUU (ssRNA) [Ic_S1_P3E.1_K3.1_C3.1_H3.1_A3.1_[T5A]_F3.1_[A8C]_T3.1] | 343 |
| UCUCUUUGUAAUCCCAUCUCUU (ssRNA) [Ic_S1_P5E.1_K5.1_C5.1_H5.1_A5.1_[T5A]_[A7C]_F5.1_[T8C]_[T9C]_T5.1] | 868 |
| UCUCUUUGUACUAAAAUCUCUU (ssRNA) [Ic_S1_P5E.1_K5.1_C5.1_H5.1_A5.1_[T5C]_F5.1_[T8A]_[T9A]_T5.1] | 58.8 |
| UCUCUUUGUAUAUUAUCUCUU (ssRNA) [Ic_S1_P4E.1_K4.1_C4.1_H4.1_A4.1_F4.1_T4.1] | 0.576 |
| UCUCUUUGUACCUAACUCUCUU (ssRNA) [Ic_S1_P5E.1_K5.1_C5.1_H5.1_A5.1_[T5C]_[T6C]_[A7T]_F5.1_[T8A]_[T9A]_[A10C]_T5.1] | 65.6 |
| UCUCUUUGUACGUCCCUCUCUU (ssRNA) [Ic_S1_P5E.1_K5.1_C5.1_H5.1_A5.1_[T5C]_[T6G]_[A7T]_F5.1_[T8C]_[T9C]_[A10C]_T5.1] | 394 |
| UCUCUUUGUACCGACCUCUCUU (ssRNA) [Ic_S1_P5E.1_K5.1_C5.1_H5.1_A5.1_[T5C]_[T6C]_[A7G]_F5.1_[T8A]_[T9C]_[A10C]_T5.1] | > 2300 |
| UCUCUUUGUACAGUCUUCUCUU (ssRNA) [Ic_S1_P5E.1_K5.1_C5.1_H5.1_A5.1_[T5C]_[T6A]_[A7G]_F5.1_[T9C]_[A10T]_T5.1] | 22.9 |
| UCUCUUUGUAUACACUCUCUU (ssRNA) [Ic_S1_P4E.1_K4.1_C4.1_H4.1_A4.1_[T7C]_F4.1_[T8A]_[A9C]_T4.1] | 118 |
| UCUCUUUGUAUACAGUCUCUU (ssRNA) [Ic_S1_P4E.1_K4.1_C4.1_H4.1_A4.1_[T7C]_F4.1_[T8A]_[A9G]_T4.1] | 95.6 |

| Binder | Kd [nM] |
| --- | --- |
| UCUCUUUGUAGUUUCCUCUCUU (ssRNA) [Ic_S1_P5E.1_K5.1_C5.1_H5.1_A5.1_[T5G]_[A7T]_F5.1_[T9C]_[A10C]_T5.1] | 479 |
| UCUCUUUGUAUUACAUUCUCUU (ssRNA) [Ic_S1_P5E.1_K5.1_C5.1_H5.1_A5.1_F5.1_[T8C]_[T9A]_[A10T]_T5.1] | 121 |
| UCUCUUUGUAUAACGUCUCUU (ssRNA) [Ic_S1_P4E.1_K4.1_C4.1_H4.1_A4.1_[T7A]_F4.1_[T8C]_[A9G]_T4.1] | 42.3 |
| UCUCUUUGUAUCCCGGUCUCUU (ssRNA) [Ic_S1_P5E.1_K5.1_C5.1_H5.1_A5.1_[T6C]_[A7C]_F5.1_[T8C]_[T9G]_[A10G]_T5.1] | > 2300 |
| UCUCUUUGUAAUCACCUCUCUU (ssRNA) [Ic_S1_P5E.1_K5.1_C5.1_H5.1_A5.1_[T5A]_[A7C]_F5.1_[T8A]_[T9C]_[A10C]_T5.1] | 1200 |
| UCUCUUUGUAAAUUUCUCUU (ssRNA) [Ic_S1_P3E.1_K3.1_C3.1_H3.1_A3.1_[T5A]_F3.1_[A8T]_T3.1] | 16.9 |
| UCUCUUUGUACCAACCUCUCUU (ssRNA) [Ic_S1_P5E.1_K5.1_C5.1_H5.1_A5.1_[T5C]_[T6C]_F5.1_[T8A]_[T9C]_[A10C]_T5.1] | 556 |
| UCUCUUUGUAUAGCCUCUCUU (ssRNA) [Ic_S1_P4E.1_K4.1_C4.1_H4.1_A4.1_[T7G]_F4.1_[T8C]_[A9C]_T4.1] | 108 |
| UCUCUUUGUAUAUCGAUCUCUU (ssRNA) [Ic_S1_P5E.1_K5.1_C5.1_H5.1_A5.1_[T6A]_[A7T]_F5.1_[T8C]_[T9G]_T5.1] | 38.9 |
| UCUCUUUGUAUAGCGUCUCUU (ssRNA) [Ic_S1_P4E.1_K4.1_C4.1_H4.1_A4.1_[T7G]_F4.1_[T8C]_[A9G]_T4.1] | 283 |
| UCUCUUUGUAUCACAUUCUCUU (ssRNA) [Ic_S1_P5E.1_K5.1_C5.1_H5.1_A5.1_[T6C]_F5.1_[T8C]_[T9A]_[A10T]_T5.1] | 106 |
| UCUCUUUGUAUACCGUCUCUU (ssRNA) [Ic_S1_P4E.1_K4.1_C4.1_H4.1_A4.1_[T7C]_F4.1_[T8C]_[A9G]_T4.1] | 542 |
| UCUCUUUGUAAUGCAUUCUCUU (ssRNA) [Ic_S1_P5E.1_K5.1_C5.1_H5.1_A5.1_[T5A]_[A7G]_F5.1_[T8C]_[T9A]_[A10T]_T5.1] | 910 |
| UCUCUUUGUAACUCCAUCUCUU (ssRNA) [Ic_S1_P5E.1_K5.1_C5.1_H5.1_A5.1_[T5A]_[T6C]_[A7T]_F5.1_[T8C]_[T9C]_T5.1] | 616 |
| UCUCUUUGUAUACGGUCUCUU (ssRNA) [Ic_S1_P4E.1_K4.1_C4.1_H4.1_A4.1_[T7C]_F4.1_[T8G]_[A9G]_T4.1] | 683 |
| UCUCUUUGUAUAUAGUUCUCUU (ssRNA) [Ic_S1_P5E.1_K5.1_C5.1_H5.1_A5.1_[T6A]_[A7T]_F5.1_[T8A]_[T9G]_[A10T]_T5.1] | 4.66 |
| UCUCUUUGUAUACCCUCUCUU (ssRNA) [Ic_S1_P4E.1_K4.1_C4.1_H4.1_A4.1_[T7C]_F4.1_[T8C]_[A9C]_T4.1] | 93.4 |
| UCUCUUUGUAUACCGUUCUCUU (ssRNA) [Ic_S1_P5E.1_K5.1_C5.1_H5.1_A5.1_[T6A]_[A7C]_F5.1_[T8C]_[T9G]_[A10T]_T5.1] | 334 |
| UCUCUUUGUAUUUAUUCUCUU (ssRNA) [Ic_S1_P4E.1_K4.1_C4.1_H4.1_A4.1_[A6T]_F4.1_[T8A]_[A9T]_T4.1] | 31.8 |
| UCUCUUUGUAACCGCCUCUCUU (ssRNA) [Ic_S1_P5E.1_K5.1_C5.1_H5.1_A5.1_[T5A]_[T6C]_[A7C]_F5.1_[T8G]_[T9C]_[A10C]_T5.1] | 2070 |

| Binder | Kd [nM] |
| --- | --- |
| UCUCUUUGUAUGUCACUCUCUU (ssRNA) [Ic_S1_P5E.1_K5.1_C5.1_H5.1_A5.1_[T6G]_[A7T]_F5.1_[T8C]_[T9A]_[A10C]_T5.1] | 132 |
| UCUCUUUGUAUCGGUAUCUCUU (ssRNA) [Ic_S1_P5E.1_K5.1_C5.1_H5.1_A5.1_[T6C]_[A7G]_F5.1_[T8G]_T5.1] | 43.9 |
| UCUCUUUGUACAUUAAUCUCUU (ssRNA) [Ic_S1_P5E.1_K5.1_C5.1_H5.1_A5.1_[T5C]_[T6A]_[A7T]_F5.1_[T9A]_T5.1] | 0.904 |
| UCUCUUUGUAUGUGUCUCUU (ssRNA) [Ic_S1_P3E.1_K3.1_C3.1_H3.1_A3.1_[A6G]_F3.1_[A8G]_T3.1] | 472 |
| UCUCUUUGUAACACGGUCUCUU (ssRNA) [Ic_S1_P5E.1_K5.1_C5.1_H5.1_A5.1_[T5A]_[T6C]_F5.1_[T8C]_[T9G]_[A10G]_T5.1] | 2070 |
| UCUCUUUGUAUACGCUCUCUU (ssRNA) [Ic_S1_P4E.1_K4.1_C4.1_H4.1_A4.1_[T7C]_F4.1_[T8G]_[A9C]_T4.1] | 367 |
| UCUCUUUGUACAGCCAUCUCUU (ssRNA) [Ic_S1_P5E.1_K5.1_C5.1_H5.1_A5.1_[T5C]_[T6A]_[A7G]_F5.1_[T8C]_[T9C]_T5.1] | 316 |
| UCUCUUUGUAAUACUCUCUCUU (ssRNA) [Ic_S1_P5E.1_K5.1_C5.1_H5.1_A5.1_[T5A]_F5.1_[T8C]_[A10C]_T5.1] | 642 |
| UCUCUUUGUACGGUAAUCUCUU (ssRNA) [Ic_S1_P5E.1_K5.1_C5.1_H5.1_A5.1_[T5C]_[T6G]_[A7G]_F5.1_[T9A]_T5.1] | 16.8 |
| UCUCUUUGUAAGUUCUUCUCUU (ssRNA) [Ic_S1_P5E.1_K5.1_C5.1_H5.1_A5.1_[T5A]_[T6G]_[A7T]_F5.1_[T9C]_[A10T]_T5.1] | 388 |
| UCUCUUUGUAUAAACUCUCUU (ssRNA) [Ic_S1_P4E.1_K4.1_C4.1_H4.1_A4.1_[T7A]_F4.1_[T8A]_[A9C]_T4.1] | 70 |
| UCUCUUUGUAUAAAUUCUCUU (ssRNA) [Ic_S1_P4E.1_K4.1_C4.1_H4.1_A4.1_[T7A]_F4.1_[T8A]_[A9T]_T4.1] | 67.2 |
| UCUCUUUGUACUCUCGUCUCUU (ssRNA) [Ic_S1_P5E.1_K5.1_C5.1_H5.1_A5.1_[T5C]_[A7C]_F5.1_[T9C]_[A10G]_T5.1] | 70.5 |
| UCUCUUUGUACAUCUCUCUU (ssRNA) [Ib_S1_P3E.1_K3.1_C3.1_H3.1_A3.1_[T5C]_F3.1_[A8C]_T3.1] | 15.9 |
| UCUCUUUGUACGCAUGUCUCUU (ssRNA) [Ic_S1_P5E.1_K5.1_C5.1_H5.1_A5.1_[T5C]_[T6G]_[A7C]_F5.1_[T8A]_[A10G]_T5.1] | 581 |
| UCUCUUUGUACAUAUUUCUCUU (ssRNA) [Ic_S1_P5E.1_K5.1_C5.1_H5.1_A5.1_[T5C]_[T6A]_[A7T]_F5.1_[T8A]_[A10T]_T5.1] | 5.5 |
| UCUCUUUGUAUCUUAGUCUCUU (ssRNA) [Ic_S1_P5E.1_K5.1_C5.1_H5.1_A5.1_[T6C]_[A7T]_F5.1_[T9A]_[A10G]_T5.1] | 3.71 |
| UCUCUUUGUACAUUUCUCUU (ssRNA) [Ic_S1_P3E.1_K3.1_C3.1_H3.1_A3.1_[T5C]_F3.1_[A8T]_T3.1] | 5.42 |
| UCUCUUUGUAUUCCCUUCUCUU (ssRNA) [Ic_S1_P5E.1_K5.1_C5.1_H5.1_A5.1_[A7C]_F5.1_[T8C]_[T9C]_[A10T]_T5.1] | 653 |
